# Results from US20150132254A1 (MIT, published 2015).
# T1: soluble murine CD25 (His-tagged recombinant mouse IL-2Rα/CD25, R&D Systems) (mouse, UniProt P01590 22-236, limits assumed)
# T1 construct: Bought reagent, described only as soluble and His-tagged; also called soluble CD25; mouse CD25
# T1 sequence (looked up): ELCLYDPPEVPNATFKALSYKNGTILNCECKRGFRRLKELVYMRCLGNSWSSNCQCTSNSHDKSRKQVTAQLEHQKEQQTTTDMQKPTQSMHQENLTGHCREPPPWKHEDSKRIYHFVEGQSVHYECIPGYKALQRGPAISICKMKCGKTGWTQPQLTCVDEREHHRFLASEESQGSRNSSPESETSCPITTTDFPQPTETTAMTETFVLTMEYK
# Target: T1, soluble murine CD25 (His-tagged …)
# Assay: yeast surface display, flow cytometry
# Protocol: EBY100 yeast harboring each of these clones were grown and induced as described (Chao et al. Nat Protocols 2006; 1(2):755-768). CD25 binding capacity was determined by labeling induced yeast with 50 nM soluble murine CD25 (R&D Systems). Proper protein folding was determined by labeling yeast displaying IL-2 variants before and after thermal denaturation with anti-mouse IL-2 antibodies. […] Anti-mouse IL-2 antibodies used were S4B6 (gift of Jianzhu Chen Lab, MIT), JES6-1A12, and JES6-5H4 (eBioscience).
row,Binder,binding result
1,"wild-type murine IL-2 (yeast-displayed) (ligand, Aga2p fusion with HA and c-myc tags; also called mIL-2; mouse IL-2) APTSSSTSSSTAEAQQQQQQQQQQQQHLEQLLMDLQELLSRMENYRNLKLPRMLTFKFYLPKQATELKDLQCLEDELGPLRHVLDLTQSKSFQLEDAENFISNIRVTVVKLKGSDNTFECQFDDESATVVDFLRRWIAFCQSIISTSPQ",binds
2,"mouse IL-2 E76A (yeast-displayed) (ligand, also called E76A IL-2) APTSSSTSSSTAEAQQQQQQQQQQQQHLEQLLMDLQELLSRMENYRNLKLPRMLTFKFYLPKQATELKDLQCLEDALGPLRHVLDLTQSKSFQLEDAENFISNIRVTVVKLKGSDNTFECQFDDESATVVDFLRRWIAFCQSIISTSPQ",no binding (tested: 50 nM)
3,"mouse IL-2 E76F (yeast-displayed) (ligand, also called E76 mutant) APTSSSTSSSTAEAQQQQQQQQQQQQHLEQLLMDLQELLSRMENYRNLKLPRMLTFKFYLPKQATELKDLQCLEDFLGPLRHVLDLTQSKSFQLEDAENFISNIRVTVVKLKGSDNTFECQFDDESATVVDFLRRWIAFCQSIISTSPQ",no binding (tested: 5 or 50 nM soluble CD25)
4,"mouse IL-2 E76G (yeast-displayed) (ligand, also called E76G IL-2) APTSSSTSSSTAEAQQQQQQQQQQQQHLEQLLMDLQELLSRMENYRNLKLPRMLTFKFYLPKQATELKDLQCLEDGLGPLRHVLDLTQSKSFQLEDAENFISNIRVTVVKLKGSDNTFECQFDDESATVVDFLRRWIAFCQSIISTSPQ",no binding (tested: 50 nM)
5,"mouse IL-2 E76R (yeast-displayed) (ligand, also called E76 mutant) APTSSSTSSSTAEAQQQQQQQQQQQQHLEQLLMDLQELLSRMENYRNLKLPRMLTFKFYLPKQATELKDLQCLEDRLGPLRHVLDLTQSKSFQLEDAENFISNIRVTVVKLKGSDNTFECQFDDESATVVDFLRRWIAFCQSIISTSPQ",no binding (tested: 5 or 50 nM soluble CD25)

# Target: T1, soluble murine CD25 (His-tagged …)
# Assay: not stated (legend of the schematic FIG. 5)
row,Binder,Kd [nM]
1,"D265AFc/IL-2 (monovalent mouse IgG2a D265A Fc / wild-type mouse IL-2 heterodimer) (Fc fusion, also called D265A Fc/wt mIL-2) chain 1: EPRVPITQNPCPPLKECPPCAAPDLLGGPSVFIFPPKIKDVLMISLSPMVTCVVVAVSEDDPDVQISWFVNNVEVHTAQTQTHREDYNSTLRVVSALPIQHQDWMSGKEFKCKVNNRALPSPIEKTISKPRGPVRAPQVYVLPPPAEEMTKKEFSLTCMITGFLPAEIAVDWTSNGRTEQNYKNTATVLDSDGSYFMYSKLRVQKSTWERGSLFACSVVHEGLHNHLTTKTISRSLGKGGGSAPTSSSTSSSTAEAQQQQQQQQQQQQHLEQLLMDLQELLSRMENYRNLKLPRMLTFKFYLPKQATELKDLQCLEDELGPLRHVLDLTQSKSFQLEDAENFISNIRVTVVKLKGSDNTFECQFDDESATVVDFLRRWIAFCQSIISTSPQHHHHHH chain 2: EPRVPITQNPCPPLKECPPCAAPDLLGGPSVFIFPPKIKDVLMISLSPMVTCVVVAVSEDDPDVQISWFVNNVEVHTAQTQTHREDYNSTLRVVSALPIQHQDWMSGKEFKCKVNNRALPSPIEKTISKPRGPVRAPQVYVLPPPAEEMTKKEFSLTCMITGFLPAEIAVDWTSNGRTEQNYKNTATVLDSDGSYFMYSKLRVQKSTWERGSLFACSVVHEGLHNHLTTKTISRSLGKGGGSDYKDDDDK",~50

# Target: T1, soluble murine CD25 (His-tagged …)
# Assay: yeast surface display, titration with soluble murine CD25
# Protocol: The equilibrium dissociation constant of any particular clone was determined essentially as described (75). […] For picomolar affinity mutants of library 6.2, non-displaying EBY100 cells were spiked in at 90:10 to facilitate pelleting the low numbers of displaying cells. The equilibrium dissociation constant Kd was determined by fitting CD25 concentration and flow cytometry fluorescence data to the monovalent binding isotherm: […]
row,Binder,binding result
1,"mIL-2 QQ 6.2-4 (yeast-displayed) (ligand, Selective-reversion mutant of a library 6.2 clone; also called reversion mutant) APTSSSTSSSTAEAQQQQQQQQQQQQHLEQLLMDLQELLSRMEDSRNLRLPRMLTFKFYLPKQATELEDLQCLEDELEPLRQVLDLTQSKSFQLEDAENFISNIRVTVVKLKGSDNTFECQFDDEPATVVGFLRRWIAFCQSIISTSPQ",binds
2,"mIL-2 QQ 6.2-10 (yeast-displayed) (ligand, also called reversion mutant) APTSSSTSSSTAEAQQQQQQQQQQQQHLEQLLMDLQELLSRMEDHRNLRLPRMLTFKFYLPEQATELEDLQCLEDELEPLRQVLDLTQSKSFQLEDAENFISNIRVTVVKLKGSDNTFECQFDDEPATVVDFLRRWIAFCQSIISTSPQ",binds
3,"mIL-2 QQ 6.2-13 (yeast-displayed) (ligand, Selective-reversion mutant of a library 6.2 clone; also called reversion mutant) APTSSSTSSSTAEAQQQQQQQQQQQQHLEQLLMDLQELLSRMEDHRNLRLPRMLTFKFYLPEQATELKDLQCLEDELEPLRQVLDLTQSKSFQLEDAENFISNIRVTVVKLKGSDNTFECQFDDEPATVVDFLRRWIAFCQSIISTSPQ",binds
4,"mIL-2 QQ 6.2-11 (yeast-displayed) (ligand, Selective-reversion mutant of a library 6.2 clone; also called reversion mutant) APTSSSTSSSTAEAQQQQQQQQQHLEQLLMDLQELLSRMEDSRNLRLPRMLTFKFYLPEQATELKDLQCLEDELEPLRQVLDLTQSKSFQLEDAENFISNIRVTVVKLKGSDNTFECQFDDEPATVVDFLRRWIAFCQSIISTSPQ",binds
5,"mIL-2 QQ 6.2-8 (yeast-displayed) (ligand, Selective-reversion mutant of a library 6.2 clone; also called reversion mutant) APTSSSTSSSTAEAQQQQQQQQHLEQLLMDLQELLSRMEDHRNLRLPRMLTFKFYLPKQATELEDLQCLEDELEPLRQVLDLTQSKSFQLEDAENFISNIRVTVVKLKGSDNTFECQFDDEPATVVDFLRRWIAFCQSIISTSPR",binds
